From paper PMC3901689, “Leptin-Induced Endothelium-Dependent Vasorelaxation of Peripheral Arteries in Lean and Obese Rats: Role of Nitric Oxide and Hydrogen Sulfide” (PLoS ONE, 2014)

T1: human leptin binding domain (hLBD) consisting of the amino acids 428-635 of human leptin receptor (human, UniProt P48357 428-635)
T1 chain: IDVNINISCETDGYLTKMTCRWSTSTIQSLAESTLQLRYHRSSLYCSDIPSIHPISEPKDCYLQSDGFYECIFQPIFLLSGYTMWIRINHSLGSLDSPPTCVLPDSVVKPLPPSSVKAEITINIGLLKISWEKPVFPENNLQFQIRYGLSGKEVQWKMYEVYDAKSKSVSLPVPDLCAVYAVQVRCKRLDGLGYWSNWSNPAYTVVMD

T2: human leptin binding domain (hLBD) consisting of the amino acids 428-635 of human leptin receptor (human, UniProt P48357 428-635)
T2 sequence (looked up): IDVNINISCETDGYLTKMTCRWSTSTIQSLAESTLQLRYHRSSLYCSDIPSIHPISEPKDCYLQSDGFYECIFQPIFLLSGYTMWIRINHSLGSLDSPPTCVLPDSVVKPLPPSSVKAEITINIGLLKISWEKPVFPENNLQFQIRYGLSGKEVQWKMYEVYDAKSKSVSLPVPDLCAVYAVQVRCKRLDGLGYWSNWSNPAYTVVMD


Legend:
[1] = biological target: T1, human leptin binding domain (hLBD) …; assay: ELISA; competition with biotinylated human leptin; given as EC50
[2] = biological target: T2, human leptin binding domain (hLBD) …; assay: competitive non-radioactive receptor-binding assay; hLBD immobilized; biotinylated human leptin bound in the presence of the indicated concentrations of SRLA or PEG-SRLA; triplicates; conditions: both partners purified

| IC50 [1] [nM] | binding result [2] | Binder |
| --- | --- | --- |
| 0.977 | binds | super active rat leptin antagonist (D23L/L39A/D40A/F41A mutant), non-pegylated (ligand, extra Ala left at the N-terminus from an extra Met-Ala (Met is cleaved by the bacteria); leptin, rat; about 16 kDa by SDS-PAGE; also called SRLA) AVPIHKVQDDTKTLIKTIVTRINLISHTQSVSARQRVTGAAAIPGLHPILSLSKMDQTLAVYQQILTSLPSQNVLQIAHDLENLRDLLHLLAFSKSCSLPQTRGLQKPESLDGVLEASLYSTEVVALSRLQGSLQDILQQLDLSPEC |
| 9.31 | binds | mono-pegylated super active rat leptin antagonist (D23L/L39A/D40A/F41A mutant) (ligand, mono-pegylated (90%, with 10% double pegylated product); site and PEG size not stated, extra Ala left at the N-terminus from an extra Met-Ala (Met is cleaved by the bacteria); leptin, rat; same chain as m1; also called PEG-SRLA; pegylated superactive rat leptin receptor antagonist) AVPIHKVQDDTKTLIKTIVTRINLISHTQSVSARQRVTGAAAIPGLHPILSLSKMDQTLAVYQQILTSLPSQNVLQIAHDLENLRDLLHLLAFSKSCSLPQTRGLQKPESLDGVLEASLYSTEVVALSRLQGSLQDILQQLDLSPEC |
